Experimental findings from patent publication US20210269512A1 (NOVOBIND LIVESTOCK THERAPEUTICS, published 2021) are described below.

Changes are numbered by the printed parent chain.

To fix the notation:
T1: Cpa (phospholipase) (Clostridium perfringens, UniProt P0C216 29-398)
T1 sequence: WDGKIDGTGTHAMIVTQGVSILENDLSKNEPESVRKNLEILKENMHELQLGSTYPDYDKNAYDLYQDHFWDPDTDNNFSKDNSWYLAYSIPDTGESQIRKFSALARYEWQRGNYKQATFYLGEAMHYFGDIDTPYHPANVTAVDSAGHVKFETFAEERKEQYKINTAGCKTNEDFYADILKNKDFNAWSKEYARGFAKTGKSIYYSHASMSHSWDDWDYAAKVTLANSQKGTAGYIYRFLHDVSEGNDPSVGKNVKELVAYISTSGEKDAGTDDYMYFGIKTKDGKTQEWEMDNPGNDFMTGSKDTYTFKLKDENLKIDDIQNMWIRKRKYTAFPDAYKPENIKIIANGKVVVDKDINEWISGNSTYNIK

B1: NBX0338 (VHH)
VHH: QVQLQESGGGLVQAGDSLRLSCATSGRSFSSYTMGWFRQTPGKEREFVAAISWSGTYYTDSVKGRFTISRDNAKNTVYLQMNSLKPEDTAVYYCAVGSRRLYYSSDINYWGQGTQVTVSS
B2: NBX0339 (VHH)
VHH: B1 VHH with R27L, S28T, F29V, S31R, T76M, V96A, Y102H
B3: NBX0329 (VHH)
VHH: B1 VHH with D16G, R27L, S28T, F29V, S31R, E44D, R70V, T76M, V96A, S105N
B4: NBX0330 (VHH)
VHH: QVQLQESGGGLVQAGGSLRLSCAASSRTFSNYAMAWFRQTPGKEREFLATINGDTTFTIYADSVKGRFTISRDNAKNTLYLQMNSLKAEDTAVYYCAARQWNPTMRERDYGYWGQGTEVTVSS
B5: NBX0340 (VHH)
VHH: QVQLQESGGGLVQAGESLRLSCLAAGRTFSTSTLGWFRQAPGLEREFVAAIRYTSDYTARTTDYADSVKGRFAISRDYIKQAVYLQMNNLKPEDTAVYYCAAAKYGMGYSDPSGYTYWGQGTQVTVSS

The experiment deals with T1, Cpa (phospholipase). The experiment can be described thus: phage ELISA, coated antigen.
On to B1, for which the binding result is reported as “binds”.
The same measure for B2: “binds”; for B3: “binds”; for B4: “binds”.
As to B5, the binding result is listed as “binds”.
